Key:
[1] = biological target: HIV-1 protease, bait PR_v1 (HIV-1 isolate YU2) (UniProt P35963); experiment: cell-based or functional assay
[2] = biological target: HIV-1 Integrase (IN), bait IN (HIV-1 isolate YU2) (UniProt P35963); experiment: cell-based or functional assay
Chain of HIV-1 Integrase (IN), bait IN (HIV-1 isolate YU2) (P35963 1148-1435 limits assumed): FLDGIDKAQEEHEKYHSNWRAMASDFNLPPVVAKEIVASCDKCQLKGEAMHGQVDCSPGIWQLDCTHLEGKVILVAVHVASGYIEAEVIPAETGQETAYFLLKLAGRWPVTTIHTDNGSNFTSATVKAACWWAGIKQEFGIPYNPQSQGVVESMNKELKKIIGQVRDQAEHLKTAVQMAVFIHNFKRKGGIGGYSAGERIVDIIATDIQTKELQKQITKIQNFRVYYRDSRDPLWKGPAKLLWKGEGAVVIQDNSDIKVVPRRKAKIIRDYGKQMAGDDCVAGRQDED

Chain of HIV-1 protease, bait PR_v1 (HIV-1 isolate YU2) (P35963 489-587 limits assumed): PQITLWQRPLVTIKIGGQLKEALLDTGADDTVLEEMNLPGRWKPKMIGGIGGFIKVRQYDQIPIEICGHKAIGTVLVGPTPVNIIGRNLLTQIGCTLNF

Row | Substance | inhibition of HIV-1 infection (p24 antigen in supernatant) after siRNA against AIM1, HeLa cells with CD4 and CCR5 [1] [%] | inhibition of HIV replication (p24 antigen in supernatant) after siRNA against LEDGF, HeLa cells with CD4 and CCR5 [2] [%]
1 | Human AIM1 (prey030612), Absent in Melanoma, prey fragments, Q9Y4K1 1-2131 | 30 | –
2 | LEDGF p75 isoform (PSIP2), prey fragments (from UniProt O75475 340-417) | – | 84
